In patent US20160348147:

Tested on: PSA peptide M(GVGVP)60GDGQSSIYSQTEEQQDDEEG

Prostate Specific Antigen (PSA), active
optical density of 100 µM PSA peptide before and after 2 h with 20 ng/mL active PSA at 37 C: a distinct difference in the presence of active PSA, with an increase in optical density of the solution above the transition temperature after incubation with enzyme
